Test results reported in patent US20250034594A1, “RNA-GUIDED GENOME RECOMBINEERING AT KILOBASE SCALE” (THE BOARD OF TRUSTEES OF THE LELAND STANFORD JUNIOR …, priority 2021, published 2025).

How the values were obtained:
Format in all cases: cell-based
gene editing with Cas9 = assay: Screen of 322 new SSAP proteins, gene editing activity with Cas9 (Table 5); set-up: Cas9 with SSAP activity: scale not given here
Excerpt: (§1) 322 new SSAP proteins were identified from sequence data, synthesized, and screened for activity with Cas9 and dCas9. Gene editing activities are shown below in Table 5, followed by amino acid sequences of the proteins.

gene editing with dCas9 = assay: Screen of 322 new SSAP proteins, gene editing activity with dCas9 (Table 5); set-up: dCas9 with SSAP activity: scale not given here
Excerpt: as §1

[1] = system: gene editing with Cas9 and dCas9; assay: Screen of 322 new SSAP proteins, activity across all experiments (Cas9 and dCas9, Table 5); set-up: scale not given here
Excerpt: as §1

B1: SSAP_290: SEQ ID NO: 459; Anaerovirgula multivorans (protein)
chain: DAKHLTVVHQNLNTLLKAKADALPKGFNQTRFLQNCMTVLQDTKDIESVEPKSVARTMLKGAFLGLDFFNKECYAIVYNKKAGNSWIKTLEFQTDYKGEIKLAKKYSINTIKDIYAKLVREGDEFEEGVKDGKQVINFKPKPFNNNKILGAFAVAYYENGSMIYDTMSVEEIESVKKAYAKADKEGKYSKAWIESTGEMYKKTVLRRLCKLIELDFDTIEQKQAFDEGSGMEFKQEGKTDKPKSSLEAEFVEAEYEEVEESETSEVVEE
modifications: Anaerovirgula multivorans
B1 was tested, and the “Cas9 with SSAP activity” value (gene editing with Cas9) was −1.166, the “Cas9 with SSAP activity (normalized)” value (gene editing with Cas9) was −0.249 and the “dCas9 with SSAP activity” value (gene editing with dCas9) was −3.506. The “dCas9 with SSAP activity (normalized)” value (gene editing with dCas9) was −0.681 and the “Activity across all experiments” value [1] was −2.336.

B2: SSAP_96: SEQ ID NO: 265; Plesiomonas shigelloides (protein)
chain: SNQRPPIATADLQKAQSQPPAAKPEQNLINFINQPSMKSQIAAALPRHMAPERMIRIITTEIRKTPKLATCDVQSFIGAVVQCSQLGLEPGGGLGHAYLLPFGNGKAESGKPNVQLIIGYRGMIDLARRSGQIVSISSRIVREGDQFHYEYGLNETLKHVPGDNESAPITHVYAVAKLKDGGTQFEVMSFNEIEKIRGQSKAGNDGPWIKHWEEMAKKTVIRRLFKYLPVSIEMQRAVILDEKAEADIEQDNASIIGAEYSVVENAA
modifications: Plesiomonas shigelloides
B2 was tested, and the “Cas9 with SSAP activity” value (gene editing with Cas9) was −0.322, the “Cas9 with SSAP activity (normalized)” value (gene editing with Cas9) was −1.581 and the “dCas9 with SSAP activity” value (gene editing with dCas9) was −3.416. For the same molecule, the “dCas9 with SSAP activity (normalized)” value (gene editing with dCas9) was −1.995 and the “Activity across all experiments” value [1] was −1.869.

B3: SSAP_26: SEQ ID NO: 195 (protein)
chain: TVQLVQPRNSDEYDFDQTKLDLIKRTICKGATNDELQLFIHACKRTGLDPFMRQIFAVKRWDSSTKKEIMTIQTGIDGYRLIADRTGKYAPGKDTEFGYDNKGNIRWAKAYIKKMTPDGQWHEISAIAFWEEYVQTTREGKSTLFWLKKSHIMLSKCTEALALRKTFPAERSGIYTKEEMAQEFSPLEEHLVERIAASRNDQGRS
For B3, the “Cas9 with SSAP activity” value (gene editing with Cas9) was 0.692, the “Cas9 with SSAP activity (normalized)” value (gene editing with Cas9) was 1.723 and the “dCas9 with SSAP activity” value (gene editing with dCas9) was −3.399. For the same molecule, the “dCas9 with SSAP activity (normalized)” value (gene editing with dCas9) was −0.852 and the “Activity across all experiments” value [1] was −1.354.

B4: SSAP_95: SEQ ID NO: 264; Proteus terrae (protein, listed as Proteus terrae)
chain: SNPPLAQADLQKTQGTEVREKTKDQMLVEFINKPNMKAQLAAALPRHMAPDRMIRIVTTEIRKTPELANCDMQSFVGAVVQCSQLGLEPGNALGHAYILPFEKKRKQGNQWVTVRTDAQLIIGYRGMIDLARRSGQIVSISARTVRQGDSFHFEYGLNENLTHVPGENEDSPITHVYAVARLKDGGVQFEVMTHNQIEKVRTSSKAGQNGPWVSHWEEMAKKTVIRRLFKYLPVSIEMQKAVILDEKAEANVDQENSSVFEGEFEEVGQGA
For B4, the “Cas9 with SSAP activity” value (gene editing with Cas9) was −0.020, the “Cas9 with SSAP activity (normalized)” value (gene editing with Cas9) was −0.011 and the “dCas9 with SSAP activity” value (gene editing with dCas9) was −3.325. For the same molecule, the “dCas9 with SSAP activity (normalized)” value (gene editing with dCas9) was −0.539 and the “Activity across all experiments” value [1] was −1.672.

B5: SSAP_273: SEQ ID NO: 442; Virgibacillus (multispecies) (protein, listed as Virgibacillus sp.)
chain: ATNDSVKNQIANKNQGSNQVNPNNLGLKQLLSTPTMRKKFDEVLDKKAPQFMSSLLNLYSNDSYLQKAEPMSVVTSALVAATLDLPIDKNLGYAWIVPYGGKAQFQLGYKGYIQLALRTGQYRNINVIEVYEGELKSFNRLTEEMELDFEQKQSDKVIGYTGYFELINGFRKTVYWSKEEIEKHKKRFSKSDFGWKKDWDAMAKKTVIRNMLNKWGILSIDMQKGIVEDNKDPIEKANEFDEQDIIEADFSEVNDDQEIDFSDAQ
B5 was tested, and the “Cas9 with SSAP activity” value (gene editing with Cas9) was −1.654, the “Cas9 with SSAP activity (normalized)” value (gene editing with Cas9) was −0.724 and the “dCas9 with SSAP activity” value (gene editing with dCas9) was 1.896. The “dCas9 with SSAP activity (normalized)” value (gene editing with dCas9) was 2.101 and the “Activity across all experiments” value [1] was 0.121.

B6: SSAP_237: SEQ ID NO: 406; Paenibacillus popilliae ATCC 14706 (protein, listed as Paenibacillus popilliae)
chain: STSHLLTIHNNLEKLIDSKREAMPKSFNKTRFLQNCMTVLQDTKDVGKCDPQSVARTLLKGAFLGLDFFNKECYAITYGGSVQFQTDYKGEKKLAKKYSVRPVKDIYAKLVREGDEFIEEIKDGQPTVQFKPLPFNDSEIKGAFAVSLFEDDGLAYEVMSVAEIELTRKNYSKQPNGQAWVKSKGEMYKKTVLRRLCKNIELDFDTIEQAQAFEDSSDFEFNKEPKQAQQSPLNPQATVIDAEYEEVKEESDNETNQE
In the case of B6, the “Cas9 with SSAP activity” value (gene editing with Cas9) is reported as −7.473, the “dCas9 with SSAP activity” value (gene editing with dCas9) is reported as −3.513 and the “dCas9 with SSAP activity (normalized)” value (gene editing with dCas9) is reported as −0.512. For the same molecule, the “Activity across all experiments” value [1] was −5.493.

B7: SSAP_265: SEQ ID NO: 434; Clostridium coskatii (protein, listed as Clostridium coskatii)
chain: SDKKMVVLNESHTMLNKLLETKQEALPKDFNKARFLQNCMTVLQDTKGIEQCQPITVARTMLKGAFLGLDFFNKECYAIPYKDNLQFQTDYKGEIKLAKKYSFNPIKDIYAKIVRQGDDFQEAIINGQQTINFTPVPFNNGEIIGAFAVCLFQDGSMLYETMAKQEIENTRKNFSKAPNSPAWTKTPGEMYKKTVLRRLCKLIELDFDSVECKKVYNETSDFEFENQQHEVSNFDKKDIDEDKIVEADVEVQDDNENNVPEDGE
For B7, the “Cas9 with SSAP activity” value (gene editing with Cas9) was −0.932, the “Cas9 with SSAP activity (normalized)” value (gene editing with Cas9) was −0.510 and the “dCas9 with SSAP activity” value (gene editing with dCas9) was −3.182. For the same molecule, the “dCas9 with SSAP activity (normalized)” value (gene editing with dCas9) was −0.478 and the “Activity across all experiments” value [1] was −2.057.

B8: SSAP_320: SEQ ID NO: 489; Pseudoalteromonas sp. MQS005 (protein, listed as Pseudoalteromonas sp.)
chain: SISQQDYENLLYSKLYECESQYQAYLAEHNEKLNFNAELNYMYKAVMSGVGIEGGFPYTPLESIVESFLKAAKLGLSLDPSEQFCFLRSQYDHSTGLYHTELGLGYKGVLHLAYRSGKVKQIVSNVFYNKDNFQFNGPNSKVTHTMTVLSTSARGNLAGGYCQTELVDGSFIVTVMPPEEILAIEEQGKSVGNPAWLSAHVNQMREKTLILRHWKTLYPAIYSSSLLDSAQIFDDECEEFPFSSPSQGFSESQTIGSY
For B8, the “Cas9 with SSAP activity” value (gene editing with Cas9) was −1.322, the “Cas9 with SSAP activity (normalized)” value (gene editing with Cas9) was −0.932 and the “dCas9 with SSAP activity” value (gene editing with dCas9) was −3.288. The “dCas9 with SSAP activity (normalized)” value (gene editing with dCas9) was −0.449 and the “Activity across all experiments” value [1] was −2.305.

B9: SSAP_113: SEQ ID NO: 282; Acinetobacter sp. RIT592 (protein, listed as Acinetobacter sp.)
chain: ADLKNKLANKAAGTVTKTSPNAGMKQLMKSMSKEIEAALPSHMSSERFQRVALTAFGNNPKLMNCDPMSFIAAMMDSAQLGLEPNTPLGQAYLIPYGTKVQFQVGYKGLLELALRSGKIKTLYAHEVRENDTFEVKYGLHQDLIHEPVLKGNRGEVIGYYAVYHLDTGGHSFVFMTKDEVLEHAKGKSKTFNNGPWQTDFDAMAKKTVIKQLLKYAPLSIEMQKAVSSDETVKSKIDEDMSLVVDESDSIEANFEIKEDEDGQLDVYVK
B9 was tested, and the “Cas9 with SSAP activity” value (gene editing with Cas9) was −3.728, the “Cas9 with SSAP activity (normalized)” value (gene editing with Cas9) was −3.241 and the “dCas9 with SSAP activity” value (gene editing with dCas9) was −3.134. The “dCas9 with SSAP activity (normalized)” value (gene editing with dCas9) was −3.818 and the “Activity across all experiments” value [1] was −3.431.

B10: SSAP_57: SEQ ID NO: 226; Pirellula sp. SH-Sr6A (protein, listed as Pirellula sp.)
chain: SEATKEAKPETAIAKKPNGIKDWLKSDALKTQIASVAPKHMAPERVMRIALNAVSRTPKLADCTPESFMRCLLDLSSWGLVPDGRHAHLIPYGTECTLVLDYKGLVTLAYRSGWVKKIHADVVFEGDIFVYSLGTVCQHIPWEFRDDANKPEHKGHFRAAYCVVTMADGIEKHEVMTASEIDAIKAKSRSGNSGPWKDHYTEMAKKTVYRRASKWLPLSPEQADAMERDDDRIIDAVSVAVTQRLSKAAMPLIGANETGDTE
In the case of B10, the “Cas9 with SSAP activity” value (gene editing with Cas9) is reported as −3.376, the “Cas9 with SSAP activity (normalized)” value (gene editing with Cas9) is reported as −0.549 and the “dCas9 with SSAP activity” value (gene editing with dCas9) is reported as −3.405. The “dCas9 with SSAP activity (normalized)” value (gene editing with dCas9) was −0.557 and the “Activity across all experiments” value [1] was −3.391.

B11: SSAP_169: SEQ ID NO: 338; Streptomyces showdoensis (protein, listed as Streptomyces showdoensis)
chain: TSDARNAVARRAANVGQVEQAGEQPKPTMAQQIERMKPEIARALPKHMDADRIARIALTLIRKNPDLANCTTESFLGALMTCSQLGFEPGSPTQEAYIIPRKGQAEFQLGYQGMVTLFYQHPMASSVKVETVRENDYFEHEEGLEERLIHRPFADGPRGKAIAYYSVARLINGGRTFKVMYPAEIEERRQKLPSKNSPAWRDNYDEMAKKTVLRNHFKALPKSAELARALAHDGTVRTDWQPDAIDVPPEYLSEPQRPELEAGAQ
B11 was tested, and the “Cas9 with SSAP activity” value (gene editing with Cas9) was −1.842, the “Cas9 with SSAP activity (normalized)” value (gene editing with Cas9) was −1.968 and the “dCas9 with SSAP activity” value (gene editing with dCas9) was −3.497. The “dCas9 with SSAP activity (normalized)” value (gene editing with dCas9) was −0.528 and the “Activity across all experiments” value [1] was −2.669.

B12: SSAP_249: SEQ ID NO: 418; environmental Halophage eHP-30 (protein)
chain: TEQNQTPAKTESKSPIKAQLYKDNVQQRFQELLGERASAFMTSVMSVVKDNDQLSQAEPSSVLNAAMTAATLDMPIDNNLGMAYIVPYKDGKSGKTYAQFQLGYKGFIQLAQRSGQFKTISATPVRQGQIVTADPLRGYEFDFTQGQDKEVVGYAAYFALLNGFEKTLYMSKAEMEQHAASYAAGYKKGYSNWNRKFDEMALKTVIKQLLSKYAPLSVDMQKAQQTDQTVSVEEPNAIEQQEAAPEIDASSNNNQNQ
modifications: environmental Halophage eHP-30
With B12 the “Cas9 with SSAP activity” value (gene editing with Cas9) was −3.033, the “Cas9 with SSAP activity (normalized)” value (gene editing with Cas9) was −0.543 and the “dCas9 with SSAP activity” value (gene editing with dCas9) was −3.279. The “dCas9 with SSAP activity (normalized)” value (gene editing with dCas9) was −0.575 and the “Activity across all experiments” value [1] was −3.156.

B13: SSAP_132: SEQ ID NO: 301; Enterocloster clostridioformis (protein, listed as Enterocloster clostridioformis)
chain: GIDVKHELEKRAAGQDKPVKLTRNMTIADMVKALEPEIKRALPAILTPERFTRMALSAVNNTPELANCTPMSFIAALMNAAQLGLEPNTPLGQAYLIPYKNKGTLECQFQLGYKGLIDLAYRTGQIQIIQAQAVREFDYFEYQYGLDSRLVHKPGNEERGQITFIYGLFKLSNGGYGFEVSNKAEMDAFAAKYSKSFGSKYSPWTEDYESMAKKTVIKRALKYAPVSSDFQKALSLDETVKSEIAVDMSEIRNDCIPADMGTEAA
In the case of B13, the “Cas9 with SSAP activity” value (gene editing with Cas9) is reported as −7.323, the “Cas9 with SSAP activity (normalized)” value (gene editing with Cas9) is reported as −1.345 and the “dCas9 with SSAP activity” value (gene editing with dCas9) is reported as −3.318. The “dCas9 with SSAP activity (normalized)” value (gene editing with dCas9) was −0.536 and the “Activity across all experiments” value [1] was −5.320.
